The record followed here is paper PMC8136821 (Nucleic Acids Research, 2021).

The target in this test is RhpA DEAD-box RNA helicase of H. pylori, recombinant, His-tagged (H. pylori). The test is described as follows: SPR. For orientation: In SPR one partner is held on a chip, and binding of the other changes the refractive index at the surface.

B1: H. pylori RNase R (HpRNase R), recombinant, His-tagged (enzyme)
chain: MQGFLRSLFFGVKKIPKPFAPLVEKGVLKEALELKKDRYFLKEGFDIGKVEKVKDKAFFISLAKNYPKDPLIKNLPPSFKTDALILCQIECSKKRPIAFFKAALLNADHTMIAYLAKKNNQIVAIPFKEPFKKPVSLKHSQKSLLELPRHCVVKIDTKKREISEILGALEDPLIDENLSLSLFDRVKDFSKDCLNLAQHYAQLKASDFKDRINYSHIPFITIDPKDAKDFDDAIFYDQEKRVLFVAVADVSEFVPKHSSLDKEARVRGFSVYFPNSVYPMLPLSLSQGACSLKAFEKRLALVYEIPLDNLKNARLSQGVIEVRANCTYEEINHFLSANQSSLDKDLQQSLLGFLEMALKLKKERLKKGFNFNSFENKLYLNKEGRIEKIETEKESDAHTLIEEAMLLANQSSARLLDEHFHNKGIYRTHKEPSLEQQKRLYDKLFDYEIVRPKNMGFFPFLEHALKIAKEKSIEREVSRLIIKSQNLALYSPLQESHFGLGFASYTHFTSPIRRYSDLALHRLLKELLFYQAKGCSYLLEETPELCAELNALQKKAALIERDFIKRKFARLALELLEKEFLGVVLEVKDWVVVGLKEFIGLKVLVKTNKVFKPLEKVRVTITHADLILGQVRGEITERIKEHVS
For orientation: Kd means the concentration at which binding is half-saturated. For orientation: kon means the rate constant with which the complex forms. On to B1, for which the Kd was 29 ± 4.4 nM and the kon turned out to be 35000 M⁻¹ s⁻¹.
